Assay results reported in US20110306057A1.

Columns and labels:
[1] = target: PP2A regulatory subunit B56δ (human (endogenous in human HEK TER cells)) (UniProt Q14738); assay: anti-FLAG co-IP from HEK TER cells, immunoblot, densitometry; +++ >90%, ++ 50-90%, + <50%
endogenous RalA (human) = endogenous RalA (human) (UniProt P11233); assay: cell-based or functional assay
endogenous RalA (human), sequence (P11233 1-203 limits assumed): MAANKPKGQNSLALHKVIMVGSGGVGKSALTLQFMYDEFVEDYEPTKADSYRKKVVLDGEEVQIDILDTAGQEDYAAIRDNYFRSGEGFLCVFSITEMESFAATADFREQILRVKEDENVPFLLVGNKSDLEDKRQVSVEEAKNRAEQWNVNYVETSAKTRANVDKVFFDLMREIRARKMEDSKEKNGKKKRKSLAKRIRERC

PP2A regulatory subunit B56δ (human (endogenous in human HEK TER cells)), sequence (Q14738 whole entry, stated change not applied): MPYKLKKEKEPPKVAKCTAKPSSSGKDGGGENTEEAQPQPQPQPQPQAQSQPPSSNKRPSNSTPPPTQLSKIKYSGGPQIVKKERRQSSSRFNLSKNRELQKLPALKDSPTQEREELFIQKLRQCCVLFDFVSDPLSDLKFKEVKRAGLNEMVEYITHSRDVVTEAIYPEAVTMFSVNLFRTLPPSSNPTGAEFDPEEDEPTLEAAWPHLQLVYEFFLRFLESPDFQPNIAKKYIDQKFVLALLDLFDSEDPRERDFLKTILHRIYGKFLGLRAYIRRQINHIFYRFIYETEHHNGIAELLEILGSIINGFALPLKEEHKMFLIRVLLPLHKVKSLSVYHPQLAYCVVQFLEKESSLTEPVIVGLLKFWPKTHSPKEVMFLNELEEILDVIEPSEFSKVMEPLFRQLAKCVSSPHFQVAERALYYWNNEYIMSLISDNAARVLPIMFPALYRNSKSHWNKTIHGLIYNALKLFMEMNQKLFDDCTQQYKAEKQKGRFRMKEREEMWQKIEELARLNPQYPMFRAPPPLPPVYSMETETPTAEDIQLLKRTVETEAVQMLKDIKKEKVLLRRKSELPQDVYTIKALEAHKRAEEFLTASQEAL
wild type (WT) FLAG epitope-tagged version of PP2A Aβ, sequence (P30154 whole entry): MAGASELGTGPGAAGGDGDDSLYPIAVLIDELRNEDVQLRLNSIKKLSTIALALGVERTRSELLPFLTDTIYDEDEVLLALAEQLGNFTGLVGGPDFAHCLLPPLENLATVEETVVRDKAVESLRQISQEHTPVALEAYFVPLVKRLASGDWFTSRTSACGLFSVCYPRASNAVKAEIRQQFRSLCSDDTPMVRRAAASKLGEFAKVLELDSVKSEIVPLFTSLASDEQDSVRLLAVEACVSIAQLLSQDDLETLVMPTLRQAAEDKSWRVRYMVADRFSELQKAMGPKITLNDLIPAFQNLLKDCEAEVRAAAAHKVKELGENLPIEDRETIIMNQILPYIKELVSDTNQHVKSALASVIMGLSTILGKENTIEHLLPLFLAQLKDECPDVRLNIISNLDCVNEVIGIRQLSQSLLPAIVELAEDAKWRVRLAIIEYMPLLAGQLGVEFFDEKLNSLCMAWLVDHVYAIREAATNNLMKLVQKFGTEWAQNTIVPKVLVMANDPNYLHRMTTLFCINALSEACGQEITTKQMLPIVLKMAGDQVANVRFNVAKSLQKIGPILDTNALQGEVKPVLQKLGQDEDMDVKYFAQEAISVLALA
cancer-derived FLAG-tagged PP2A Aβ mutant G8R, sequence (P30154 other isoform, or with tags, fused parts or gaps limits assumed, stated change not applied): as the sequence (P30154 whole entry) above, with G8R counted along it

| Substance | binding level (percent, co-immunoprecipitation densitometry) [1] [%] | GTP-bound RalA levels (RalA activation assay, RalBP1 agarose pull-down) (endogenous RalA (human)) [fold] |
| --- | --- | --- |
| cancer-derived FLAG-tagged PP2A Aβ mutant D504G (from UniProt P30154 1-601) | > 90 | – |
| cancer-derived FLAG-tagged PP2A Aβ mutant K343E (from UniProt P30154 1-601) | 50 to 90 | – |
| cancer-derived FLAG-tagged PP2A Aβ mutant P65S (from UniProt P30154 1-601) | 50 to 90 | – |
| endogenous PP2A Aβ (from UniProt P30154 2-601) | – | 4.5 |

Next, values leading:

| binding level (percent, co-immunoprecipitation densitometry) [1] [%] | GTP-bound RalA levels (RalA activation assay, RalBP1 agarose pull-down) (endogenous RalA (human)) [fold] | Substance |
| --- | --- | --- |
| < 50 | – | cancer-derived FLAG-tagged PP2A Aβ mutant G8R (from UniProt P30154 1-601) |
| > 90 | – | wild type (WT) FLAG epitope-tagged version of PP2A Aβ (from UniProt P30154 1-601) |
